Experimental findings from paper PMC8759039, “EjRAV1/2 Delay Flowering Through Transcriptional Repression of EjFTs and EjSOC1s in Loquat” are described below.

The target in one series is EjRAV2 (Eriobotrya japonica, UniProt A0A482LTM5 1-406). Description: EMSA; Beyotime EMSA/Gel Shift kit, chemiluminescent biotin detection; buffer, salt, pH and temperature not stated. The settings on record: protein: recombinant; tags: 6xHis (pET28a); label: biotin (ends); blunt. For orientation: Mobility shift assays separate free from complexed probe on a gel.
Sequence of EjRAV2 (A0A482LTM5 entry or part of it): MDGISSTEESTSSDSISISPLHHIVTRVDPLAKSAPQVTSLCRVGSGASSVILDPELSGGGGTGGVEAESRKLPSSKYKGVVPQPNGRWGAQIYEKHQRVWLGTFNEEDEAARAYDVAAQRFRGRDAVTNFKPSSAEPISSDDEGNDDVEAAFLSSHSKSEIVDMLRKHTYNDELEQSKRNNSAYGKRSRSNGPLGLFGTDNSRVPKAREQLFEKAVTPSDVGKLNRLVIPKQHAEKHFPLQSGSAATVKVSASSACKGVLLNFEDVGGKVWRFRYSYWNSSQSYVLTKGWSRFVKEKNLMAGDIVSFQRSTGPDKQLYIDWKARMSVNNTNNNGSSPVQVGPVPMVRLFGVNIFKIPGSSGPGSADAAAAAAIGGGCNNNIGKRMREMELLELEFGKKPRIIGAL
The target of series [1] is T1, EjRAV1 (Eriobotrya japonica, UniProt A0A482LZ61 1-403). The series is described as above. The conditions noted are these: protein: recombinant; tags: 6xHis (pET28a); label: biotin (ends); blunt.
T1 sequence (A0A482LZ61 entry or part of it): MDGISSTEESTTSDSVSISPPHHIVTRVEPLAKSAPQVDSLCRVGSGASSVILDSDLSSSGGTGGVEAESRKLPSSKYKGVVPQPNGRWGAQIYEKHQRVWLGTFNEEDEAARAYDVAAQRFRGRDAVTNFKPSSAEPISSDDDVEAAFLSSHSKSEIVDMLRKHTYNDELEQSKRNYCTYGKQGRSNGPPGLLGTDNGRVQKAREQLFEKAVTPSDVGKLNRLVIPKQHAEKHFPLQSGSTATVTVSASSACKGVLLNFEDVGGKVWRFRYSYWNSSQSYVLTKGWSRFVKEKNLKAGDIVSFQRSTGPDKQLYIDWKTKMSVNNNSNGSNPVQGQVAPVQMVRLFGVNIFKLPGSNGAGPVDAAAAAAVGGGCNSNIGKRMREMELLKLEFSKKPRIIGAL
The target of series [2] is T1, EjRAV1. The series can be described thus: competition; excess unlabeled vs biotin P1; Beyotime EMSA/Gel Shift kit, chemiluminescent biotin detection; buffer, salt, pH and temperature not stated. The conditions noted are these: protein: recombinant; tags: 6xHis (pET28a); blunt.

B1: EjFT1-P1 (dsDNA)
DNA 1: TGGCAATATGACATGCAATGCAACAGAATATAAATAGTTGATTTTG
DNA 2: CAAAATCAACTATTTATATTCTGTTGCATTGCATGTCATATTGCCA
B1: the binding result with EjRAV2 is “no binding”; with EjRAV1 [1] it was “binds”.

B2: EjFT1-P1 unlabeled (dsDNA)
DNA 1: B1 DNA 1
DNA 2: B1 DNA 2
On to B2, for which the binding result with EjRAV1 [2] is on record as “binds”.
